Laboratory results reported in the RNAGym collection of RNA variant scans (doi:10.1073/pnas.2313332121).
Variants at the floor of the assay were thinned out.

B1: TPR 5TU (parent)
chain: GGAUCUUCUCGAUCUAACAAAAAAGACAAAUCUGCCACAAAGCUUGAGAGCAUCUUCGGAUGCAGAGGCGGCAGCCUUCGGUGGCGCGAUAGCGCCAACGUUCUCAACUAUGACACGCAAAACGCGUGCUCCGUUGAAUGGAGUUUAUCAUG

Variants of: B1
Experiment: polymerase ribozyme fitness, log enrichment relative to wild type (log ratio); higher = more active; in vitro selection for triplet polymerase activity
Method in brief: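 Mutant libraries of each subunit of a heterodimeric triplet polymerase ribozyme were built by PCR and transcribed. Each library went through one round of in vitro selection in triplicate: annealing with biotinylated primer, partner subunit and triplets, frozen incubation at −7 °C, gel excision of extended constructs, streptavidin-bead capture and RT-PCR. Input and output libraries were Illumina-sequenced; only genotypes with ≥10 input reads and ≥1 read per output were kept. Fitness is log2(genotype enrichment/wild-type enrichment), using inverse-variance-weighted replicate averages.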

| Variant | polymerase ribozyme fitness (log ratio) |
| --- | --- |
| GGAUCUUCUCGAUCUAACAAAAAAGACAAAUCUGCCACAAAGCUUGAGAGCAUCUUCAGAUGCAGAGGCGGCAGCCUUCGGUGGCACGAUAGCGCCAACGUUCUCAACUGUGACCCGCAAAACGCGUGCUCCGUUGAAUGGAGUUUAUCAGG | ≤ -4.2 |
| GGAUCUUCUCGAUCUAACAAAAAAGACAAAUCUGCCACAAAGCUUGAGAGCAUCUUCAGAUGCAGAGGCGGCAGCCUUCGGUGGCGCGAUAGCGCCAACGUGCUCAACUAUGACACGCAAUACGCGUGCUCCGUUGAAUGGAGUUUAUCAUG | -2.85 |
| GGAUCUUCUCGAUCUAACAAAAAAGACAAAUCUGCCACAAAGCUUGAGAGCAUCUUCAGAUGCAGAGGCGGCAGCCUUCCGUGGCGCGAUAGCGCCAACGUUCUCAACUAUGACACGCAAAACGCGUGCUCCGUUGAAUGGAGUUUAUCAUG | ≤ -4.2 |
| GGAUCUUCUCGAUCUAACAAAAAAGACAAAUCUGCCACAAAGCUUGAGAGCAUCUUCAGAUGCAGAGGCGGCAGCCUUCGGUGGCGUGAUAGCGCCAACGUUCUCAAUUAUGACACGCAAAACGCGUGCUCCGUUGAAUGGCGUUUAUCAUG | -3.89 |
| GGAUCUUCUCGAUCUAACAAAAAAGACAAAUCUGCCACAAAGCUUGAGAGCAUCUUCAGAUGCAGAGGCGGCAGCCUUCGGUGGCGCGAUAGCGCCAACGUUCUCAACUAUGACACUCAAAACGCGUGCUCCGUUGAAUGGAGUUUAUCAUG | 1.04 |
| GGAUCUUCUCGAUCUAACAAAAAAGACAAAUCUGCCACAAAGCUUGAGAGCAUCUUCAGAUGCAGAGGCGGCAGCCUUCGGUGGCGCGAUAGCGCCAACGUUCUCAACUAUGACACGCAAAACGCGUGCUCCAUUGAAUGGAGUUUAUCAUG | -4 |
| GGAUCUUCUCGAUCUAACAAAAAAGACAAAUCUGCCACAAAGCUUGAGAGCAUCUUCAAAUGCAGAGGCGGCAGCCUUCGGUGGCGCGAUAGCGCCAACGUUCUCAACUAUGACACGCAAAGCGCGUGCUCCGUUGAAUGGAGUUUACCAUG | -2.64 |
| GGAUCUUCUCGAUCUAACAAAAAAGACAAAUCUGCCACAAAGCUUGAGAGCAUCUUCAGAAGCAGAGGCGGCAGCCUUCGGUGGCGCCAUAGCGCCAACGUUCUCAACUAUGACACGCAAAACGCGUGCUCCUUUGAAUGGAGUUUAUCAUG | ≤ -4.2 |
| GGAUCUUCUCGAUCUAACAAAAAAGACAAAUCUGCCACAAAGCUUGAGAGCAUCUUCAGAUGCAGAGGCGGCAGCCUUCGGUGGCGUGAUAGAGCCAACGUUCUCAACUAUGACACGCAAAACGCGUGCGCCGUUGAAUGGAGUUUAUCAUG | ≤ -4.2 |
| GGAUCUUCUCGAUCUAACAAAAAAGACAAAUCUGCCACAAAGCUUGAGAGCAUCUUCAGAUGCAGAGGCGGCAGCCUUCGGUGGCGUGAUAGCGCCAACCUUCUCAACUAUGACACGCAAACCGCAUGCUCCGUUGAAUGUAGUUUAUCAUG | ≤ -4.2 |
| GGAUCUUCUCGAUCUAACAAAAAAGACAAAUCUGCCACAAAGCUUGAGAGCAUCUUCAGAUGCAGAGGCGGCAGCCUUCGGUGGCGCGAUAGCGCCAACGUUCUCAACUAUGACAUGCAAAACGCGUGCUCCGUUGAAUGGAGUUUAUCAUG | 0.457 |
| GGAUCUUCUCGAUCUAACAAAAAAGACAAAUCUGCCACAAAGCUUGAGAGCAUCUUCAGAUGCAGAGGCGGCAGCCUUCGGUGGCGCGAUAGCGCCAACGUUCUCAACUAUGACACGCAAAACGCGUGCUCCGUUGAAUGGAGUGUAUCAUG | 0.851 |
| GGAUCUUCUCGAUCUAACAAAAAAGACAAAUCUGCCACAAAGCUUGAGAGCAUCUUCAGAUGCAGAGGCGGCAGCCUUCGGAGGCGCGUUAGCGCCAACGUUCUCAACUAUGACACGCGUAACGCUUGCUCCGUUGAAUGGAGUUUAUCAUG | -0.897 |
| GGAUCUUCUCGAUCUAACAAAAAAGACAAAUCUGCCACAAAGCUUGAGAGCAUCUUCAUAUCCAGAUGCGGCUGCCUUCGGUGGCGCGAUAGCGCAAACGUUCUCAACUAUGACACGCAAAACGCGUGCGCCGUUGAUUGGAGUUUAUCGUG | ≤ -4.2 |
| GGAUCUUCUCGAUCUAACAAAAAAGACAAAUCUGCCACAAAGCUUGAGAGCAUCUUCAGAUGCAGAGGCGGCAGCCUUCGGUGGCUCGAUAGCGCCAACGUUCUCAACUAUGACACGCUAAACGCGUGCUCCGUUGAAUGGAGUUUAUCAUG | -2.06 |
| GGAUCUUCUCGAUCUAACAAAAAAGACAAAUCUGCCACAAAGCUUGAGAGCAUCUUCAGAUGCAGAGGCGGCAGCCUUCGGUGGCGCGAUAACGCCAACGUUCUCAACUAUGACACGCAAAAGGCGUGCUCCGUUGAAUGGAGUUUAUCAUG | -4.01 |
| GGAUCUUCUCGAUCUAACAAAAAAGACAAAUCUGCCACAAAGCUUGAGAGCAUCUUCAGAUGCAGAGGCGGCAGCCCUCUGUGGCGCGAGAGAGCCAACGUUCUCAACUAUGACACGCAAGACGCGUGCUCCGUUGAAUGGGGUUUAUCAUG | ≤ -4.2 |
| GGAUCUUCUCGAUCUAACAAAAAAGACAAAUCUGCCACAAAGCUUGAGAGCAUCUUCAGAUGCAGAGGCGGCAGCCUUCGAUGGCGCGAUAGCGCCAACGUUCUCAACUAUGACACGCAAAACGCGUGCUCCGUUGAAUGGAGUUUAUCAUG | -0.536 |
| GGAUCUUCUCGAUCUAACAAAAAAGACAAAUCUGCCACAAAGCUUGAGAGCAUCUUCAGAUGCAGAGGCGGCAGCCUUCGGUGGCGUGAUAACGCCAACGUUCUCAACUAUGACACGCAAAACGCGUGCUCCGUUGAAUGGAGUUUAUCGUG | -0.884 |

| Variant | polymerase ribozyme fitness (log ratio) |
| --- | --- |
| GGAUCUUCUCGAUCUAACAAAAAAGACAAAUCUGCCACAAAGCUUGAGAGCAUCUUCAGAUGCAGAGGCGGCAGCCUUCGGUUGCGCGAUAGCGCCAACGUUCUCAACUAUGACACGCAAAACGCGUGCUCCGUUGAAUGGAGUUUAUCAUG | 0.174 |
| GGAUCUUCUCGAUCUAACAAAAAAGACAAAUCUGCCACAAAGCUUGAGAGCAUCUUCAGAUGCAGAGGCGGCAGCCUUCGGCGGCGCGAUACCGCCAACGUUCUCAACUUUGACACGCAAAACGCGUGCUCCGUUAAAUGGAGUUUAUCAUG | ≤ -4.2 |
| GGAUCUUCUCGAUCUAACAAAAAAGACAAAUCUGCCACAAAGCUUGAGAGCAUCUUCAGAUGCAGAGGCGGCAGCCUUCGGUGGCGCGAUAGCGCCAACGUUCUCAACUAUGACACGCAAAACGCGUGCUCCGUCGAAUGGAGUUUAUCAUG | -1.39 |
| GGAUCUUCUCGAUCUAACAAAAAAGACAAAUCUGCCACAAAGCUUGAGAGCAUCUUCAGAUGCAGAGGCGGCAGCCUUCGGUGGCGCGAUAGCCCCAACGUUCUCAACUAUGACACGCAAAACGCGUGCUCCGUUGAAUGGAGUUUAUCAUG | -0.674 |
| GGAUCUUCUCGAUCUAACAAAAAAGACAAAUCUGCCACAAAGCUUGAGAGCAUCUUCAGAUGCAGAGGCGGCAGCCUUCGGUGGCGCGAUAGCACCAACGUUCUCAACUAUGACACGCAAAACGCGUGCUCCGUUGAAUGGAGUUUAUCAUG | -0.945 |
| GGAUCUUCUCGAUCUAACAAAAAAGACAAAUCUGCCACAAAGCUUGAGAGCAUCUUCAGAUGCAGAGGCGGCAGCCUUCUGUGACGCAAUAGCGCCAACGUUCUCAACUAUGACACGCAAAACGCGUGCUCCGUUGAAUGGAGUUUAUCAUG | ≤ -4.2 |
| GGAUCUUCUCGAUCUAACAAAAAAGACAAAUCUGCCACAAAGCUUGAGAGCAUCUUCAGAUGCAGAGGCGGCAGCCUUCGGUAGCGCGAUAGCGCCAACGUUCUCAACUAUGACACGCAAAACGCGUGCUCCGUUGAAUGGAGUUUCUCAUG | -0.252 |
| GGAUCUUCUCGAUCUAACAAAAAAGACAAAUCUGCCACAAAGCUUGAGAGCAUCUUCAGAUGCAGAGGCGGCAGCCUUCGGUGGCUCGAUAGCGCCAACGUUCUCAACUAUGACACGCAAAACGCGUGCUCCGUUGAAUGGAGUUUAUCAUG | -1.12 |
| GGAUCUUCUCGAUCUAACAAAAAAGACAAAUCUGCCACAAAGCUUGAGAGCAUCUUCAGAUGCAGAGGCGGCAGCCUUCGGUGGCGCGAUAGCGCCAACUUUCUCAACUAUGACACGCAAAACGCGUGCUCCGUUGAAUGGAGUUUAUCAUG | -3.22 |
| GGAUCUUCUCGAUCUAACAAAAAAGACAAAUCUGCCACAAAGCUUGAGAGCAUCUUCAGAUGCAGAGGCGGCAGCCUUCGGUGGCGCUAUAGCGCUAACGUUCUCAACUAUGACACGAAAAACGAGUGCUCCAUUGAAUGGAGUUUAUCAUG | ≤ -4.2 |
| GGAUCUUCUCGAUCUAACAAAAAAGACAAAUCUGCCACAAAGCUUGAGAGCAUCUUCAGAUGCAGAGGCGGCAGCCUUCGGUGGCGCGAUAGCGCCAACGUUCUCAACUAUGACACGCAAAACGCGUGCUCCGUUGAAUGGAGUUGAUCAUG | 0.231 |
| GGAUCUUCUCGAUCUAACAAAAAAGACAAAUCUGCCACAAAGCUUGAGAGCAUCUUCAGAUGCAGAGGCGGCAGCCUUCGGUGGCGCGAUAGCGCCAACGUUAUCAACUAUGACACGCAAAACGCGUGCUCCGUUGAAUGGAGUUUAUCAUG | -1.19 |
| GGAUCUUCUCGAUCUAACAAAAAAGACAAAUCUGCCACAAAGCUUGAGAGCAUCUUCAGAUGCAGAGGCGGCAGCCUUCGGUGGCGCGAUAGCGCAGACGUUCUCCACUAUGACACGCUAAACGCGUGCUCCGUUGAAUGGAGUUUAUCAUG | -1.42 |
| GGAUCUUCUCGAUCUAACAAAAAAGACAAAUCUGCCACAAAGCUUGAGAGCAUCUUCAGAUGCAGAGGCGGCAGCCUUCGGUGGCGCGAUAGUGCCAACGUUCUCAACUAUGACACGCAAAACGCGUGCUCCGUUGAAUGGAGUUUAUCAUG | -2 |
| GGAUCUUCUCGAUCUAACAAAAAAGACAAAUCUGCCACAAAGCUUGAGAGCAUCUUCAGAUGCAGAGGCGGCAGCCUUCGGUGGCGCGAUAGCGCCAACGUUUUCAACUAUGACACGAAAAACGCGUGCUCAGUUGACUGGAGUUUAUCAUG | ≤ -4.2 |
| GGAUCUUCUCGAUCUAACAAAAAAGACAAAUCUGCCACAAAGCUUGAGAGCAUCUUCAGAUGCAGAGGCGGCAGCCUUCGGCGGCGCGAUAGCGCCAACGUUCUCAACUAUGACACGCAAAACGCGUGCUCCGUUGAAUGGAGUUUCUGAUG | ≤ -4.2 |
| GGAUCUUCUCGAUCUAACAAAAAAGACAAAUCUGCCACAAAGCUUGAGAGCAUCUUCAGAUGCAGAGGCGGCAGCCUUCGGUAGCGCGAUAGCGCCAACGUUCUCAACUAUGACACGCAAAACGCGUGCUCCGUUGAAUUGAGUUUAUCAUG | -3.64 |
| GGAUCUUCUCGAUCUAACAAAAAAGACAAAUCUGCCACAAAGCUUGAGAGCAUCUUCAGAUGCAGAGGCGGCAGCCUUCGGUGGCGUGAUAGCGCCAACGUUCUCAACUAUGACACGCAAAACGCGUGCUCCGUUGAAUGGAGUUUAUCAUG | -0.808 |
| GGAUCUUCUCGAUCUAACAAAAAAGACAAAUCUGCCACAAAGCUUGAGAGCAUCUUCAGAAGCAGAGGCGGCAGCCUUCGGUGGCGCGAUAGCGCCAACGUUCUCAGCUAUGACACGGGAAACGCGUGCUCCGUUGAAUGGAGUUUAUCAUG | ≤ -4.2 |
